The target of assay [1] is STEP32 C/S (catalytically inactive substrate-trapping mutant of the catalytic domain of protein tyrosine phosphatase STEP/PTPN5, aa 282-563, C496S, N-terminal 6xHis tag) (Homo sapiens (Human)) (UniProt P54829). Kind of assay: SPR; reference p3Y. (In general: In SPR one partner is held on a chip, and binding of the other changes the refractive index at the surface.)
Assay [2] has the same target. Kind of assay: SPR (value taken from Table S3).
For assay [3] the target is unchanged. Kind of assay: SPR (Biacore 3000), peptide immobilized, STEP32 C/S analyte, 1:1 Langmuir fit.
Assay [4] shares this target. Kind of assay: fluorescence polarization competition; displaces TAMRA-3Y-F2Pmp from STEP32 C/S. (In general: In fluorescence polarisation assays a small probe gives low polarisation when free and higher when bound to something large.)
For assay [5] the target is unchanged. Kind of assay: fluorescence polarization competition; displaces TAM-3Y-F2Pmp from STEP32 C/S.
Assay [6] shares this target. Kind of assay: fluorescence polarization competition; column headed Kd, the text speaks of IC50 values in Table 3.
Assay [7] shares this target. Kind of assay: SPR, peptide immobilized, STEP32 C/S analyte.
The target is the same in assay [8]. Kind of assay: fluorescence polarization competition; reference EGYNVpY hexapeptide.
Assay [9] has the same target. Kind of assay: ligand efficiency derived from the binding data.
In assay [10] the target is T1, STEP32 WT (catalytic domain of protein tyrosine phosphatase STEP/PTPN5, aa 282-563, N-terminal 6xHis tag) (UniProt P54829 282-563).
T1 construct: Expressed from pLIC-SGC1-PTPN5 WT (Addgene 39166); also called catalytic active STEP32
T1 sequence: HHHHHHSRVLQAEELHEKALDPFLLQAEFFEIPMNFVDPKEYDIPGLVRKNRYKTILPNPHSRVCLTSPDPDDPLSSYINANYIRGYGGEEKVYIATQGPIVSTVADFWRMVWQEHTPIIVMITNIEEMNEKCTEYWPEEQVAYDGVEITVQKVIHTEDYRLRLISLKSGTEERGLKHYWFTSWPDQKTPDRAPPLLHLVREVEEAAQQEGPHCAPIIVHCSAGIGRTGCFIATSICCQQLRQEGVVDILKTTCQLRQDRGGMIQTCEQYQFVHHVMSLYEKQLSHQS
Kind of assay: SPR, peptide immobilized, STEP32 WT analyte (per FIG. 7 legend).

The target of assay [11] is T1, STEP32 WT (catalytic domain of protein …). Kind of assay: SPR (Biacore 3000), peptide immobilized, STEP32 WT analyte (per FIG. 7 legend), 1:1 Langmuir fit.

Square brackets hold non-standard residues; d marks the D form. Ends that are not written are not given here. F2Pmp = N[C@@H](Cc1ccc(C(F)(F)P(=O)(O)O)cc1)C(=O)O

As a reminder, the Kd is the free concentration of one partner at which half of the binding sites on the other are occupied at equilibrium, for simple one-to-one binding. Low readings indicate a tighter complex, high ones a looser complex. A word on the koff: it is the first-order rate constant of dissociation. A high value points to a short-lived complex. A word on the kon: it is the second-order rate constant of association. The term Ki denotes a dissociation constant, usually derived from enzyme kinetics or from competition with a known ligand. Low values mean tighter binding, high ones weaker binding. For p3Ysh-2 (PEG2-YNVpYG) (peptide), in assay [1], the fold higher Kd than p3Y was determined as 17 fold. The equilibrium dissociation constant (Kd) in [2] worked out at 3.96 µM. In assay [3], this molecule displayed a Ka of 253000 M⁻¹, a dissociation constant Kd of 3.96 µM, an off-rate (koff) of 0.179 s⁻¹ and a kon of 45200 M⁻¹ s⁻¹. Moreover, in [4], the inhibition constant Ki worked out at 13.1 µM.

p3Ysh-7 (PEG2-FSpYG) (peptide) returned a Ki in assay [4] of 4.57 µM.

As to p3Ysh-1 (PEG2-NVpYG) (peptide), the dissociation constant (Kd) in assay [2] came to 26 µM. Also, in assay [3], the Ka amounted to 38400 M⁻¹, the Kd worked out at 26 µM and the koff stood at 0.00252 s⁻¹. This molecule also yielded a Ki in assay [4] of 4.99 µM.

For orientation: IC50 means the concentration at which inhibition is half-maximal. A lower IC50 goes with greater potency in that assay. In assay [5], p-fin2 (DGYNVpY) (peptide) registered a Ki of 1.85 µM. In addition, the concentration for half-maximal inhibition (IC50) in [6] was 7.15 µM.

In the case of p3Ysh-6 (PEG2-FGYNVpYG) (peptide), the fold higher Kd than p3Y in [1] was 6.4 fold. The molecule also gave a Kd in assay [2] of 6.13 µM. In assay [3], this molecule returned a Ka of 163000 M⁻¹, a Kd of 6.13 µM, an off-rate constant (koff) of 0.11 s⁻¹ and a kon of 17900 M⁻¹ s⁻¹. This molecule also showed a Ki in assay [4] of 6.96 µM.

Turning to p3Ysh-5 (PEG2-YVpYG) (peptide), the Ki in [4] came out at 5.34 µM.

As to p-fin4 (EGYNVpYE) (peptide), in [7], the Kd stood at 0.09 µM. The same molecule registered a fold improvement of the inhibition constant over the original hexapeptide in assay [8] of 2 fold. In assay [3], the Ka amounted to 1.13e+07 M⁻¹, the Kd worked out at 0.0884 µM, the koff is 0.00692 s⁻¹ and the on-rate (kon) came out at 78200 M⁻¹ s⁻¹. For the same molecule, the inhibition constant (Ki) in [5] was 0.36 µM. The molecule further registered a half-inhibitory concentration (IC50) in [6] of 1.86 µM.

In the case of p3Ysh-3 (PEG2-EGYNVpY) (peptide), in assay [1], the fold lower Kd than p3Y came to 4 fold and the fold smaller Kd than p3Y was greater than 2 fold. This molecule displayed a dissociation constant (Kd) in assay [2] of 0.06 µM. Besides, the LE (ligand efficiency) in [9] came out at 0.64. In assay [3], this molecule came in with a Ka of 1.88e+07 M⁻¹, a Kd of 0.0531 µM, an off-rate constant (koff) of 0.00176 s⁻¹ and a kon of 33100 M⁻¹ s⁻¹. In assay [5], this molecule registered a Ki of 0.69 µM. The molecule further returned a Ki in assay [4] of 1.64 µM. The IC50 in [6] turned out to be 2.6 µM.

For the molecule p3Ysh-4 (PEG2-NSpYG) (peptide), the Ki in assay [4] was found to be 13.7 µM.

As for p-fin3 (NGYNVpY) (peptide), the Ki in [5] is 2.16 µM. Moreover, the IC50 in [6] was found to be 8.84 µM.

Consider p-fin5 (EGYNVpYGD) (peptide), for which the Ki in assay [5] was 0.76 µM. Further, the half-maximal inhibitory concentration (IC50) in assay [6] is 3.36 µM.

Molecule p-fin1 (GYNVpY) (peptide) returned a Ki in assay [5] of 1.9 µM. For the same molecule, the concentration for half-maximal inhibition (IC50) in [6] was determined as 8.01 µM.

EGYNV[F2Pmp] (also called 3Ysh-F2Pmp) [3Ysh-3-F2Pmp (EGYNV{F2Pmp})] registered a dissociation constant (Kd) in [10] of 0.24 µM. In [11], this molecule registered a Ka of 4.12e+06 M⁻¹, a Kd of 0.242 µM, a koff of 0.00483 s⁻¹ and a kon of 19900 M⁻¹ s⁻¹.

In turn, ATYKEGYNV[F2Pmp]G (also called p3Y-F2Pmp) [3Y-F2Pmp (ATYKEGYNV{F2Pmp}G)] gave a Kd in [10] of 0.27 µM. In assay [11], this molecule came in with a Ka of 3.74e+06 M⁻¹, a Kd of 0.268 µM, a koff of 0.00656 s⁻¹ and a kon of 24500 M⁻¹ s⁻¹.

Values taken from patent publication US20230159589A1 (published 2023).
